Test results from paper PMC5736104 (Nature, 2017).

Target: the molecule itself
Assay: cryo-EM structure

B1: Hrd1, truncated after the RING finger domain (amino acids 1-407) (domain or fragment, S. cerevisiae, UniProt Q08109 1-407, looked up)
chain: MVPENRRKQLAIFVVVTYLLTFYCVYSATKTSVSFLQVTLKLNEGFNLMVLSIFILLNSTLLWQLLTKLLFGELRLIEHEHIFERLPFTIINTLFMSSLFHERYFFTVAFFGLLLLYLKVFHWILKDRLEALLQSINDSTTMKTLIFSRFSFNLVLLAVVDYQIITRCISSIYTNQKSDIESTSLYLIQVMEFTMLLIDLLNLFLQTCLNFWEFYRSQQSLSNENNHIVHGDPTDENTVESDQSQPVLNDDDDDDDDDRQFTGLEGKFMYEKAIDVFTRFLKTALHLSMLIPFRMPMMLLKDVVWDILALYQSGTSLWKIWRNNKQLDDTLVTVTVEQLQNSANDDNICIICMDELIHSPNQQTWKNKNKKPKRLPCGHILHLSCLKNWMERSQTCPICRLPVFDEK
Q: Which “stoichiometry N” value does the source give for B1 here?
A: The value was 2.
